Measurements taken from article PMC7247576.

How the values were obtained:
Assay in all cases: EMSA
Settings in all cases: tetrahydrofuran abasic residue (F); EMSA: 50 mM Tris-HCl pH 8.0, 100 mM NaCl, 1 mM DTT, 50 nM FAM-AP-DNA, 4 °C, 30 min; 5% native PAG. Fluorescence: 50 mM HEPES pH 8.0, 100 mM NaCl, 4 mM DTT …
[1] = tested on: APE1NΔ35 (Homo sapiens)
[2] = tested on: APE1 (full-length) (Homo sapiens)
[3] = tested on: APE1NΔ61 (Homo sapiens)

With “AP-DNA (32-mer duplex with synthetic abasic site)” the K half [1] was 200 nM, the K half [2] was 120 nM and the K half [3] was 210 nM.
